# Patent publication US10829756B2, “Discovery of enzymes from the alpha-keto acid decarboxylase family” (priority 2015, dated 2020)
# B1: KIVD variant G402V/M538L/F542V (KIVD_VLV), SEQ ID NO:3 (Lactococcus lactis subsp. lactis; F542V/G402V/M538L) (protein)
# chain: MYTVGDYLLDRLHELGIEEIFGVPGDYNLQFLDQIISRKDMKWVGNANELNASYMADGYARTKKAAAFLTTFGVGELSAVNGLAGSYAENLPVVEIVGSPTSKVQNEGKFVHHTLADGDFKHFMKMHEPVTAARTLLTAENATVEIDRVLSALLKERKPVYINLPVDVAAAKAEKPSLPLKKENSTSNTSDQEILNKIQESLKNAKKPIVITGHEIISFGLEKTVSQFISKTKLPITTLNFGKSSVDEALPSFLGIYNGKLSEPNLKEFVESADFILMLGVKLTDSSTGAFTHHLNENKMISLNIDEGKIFNESIQNFDFESLISSLLDLSEIEYKGKYIDKKQEDFVPSNALLSQDRLWQAVENLTQSNETIVAEQGTSFFGASSIFLKPKSHFIGQPLWVSIGYTFPAALGSQIADKESRHLLFIGDGSLQLTVQELGLAIREKINPICFIINNDGYTVEREIHGPNQSYNDIPMWNYSKLPESFGATEERVVSKIVRTENEFVSVMKEAQADPNRMYWIELILAKEDAPKVLKKLGKLVAEQNKS
# Columns and labels:
# [1] = substrate: CCCC(=O)C(=O)O; experiment: Steady-state kinetics of 2-ketoacid decarboxylase (ADH/NADH coupled); assay type: biochemical, Lactococcus lactis; conditions: other: pH 7.5, 21° C.
# Experimental: (§1) Since KIVD can already efficiently utilize C8 as a substrate, enzyme specificity is of primary importance. Therefore each mutant was screened against a panel of 2-ketoacid substrates in order to assess the specificity and activity of each mutant. (FIG. 11) This assay was performed using a high-throughput pH-dependent colorimetric assay of enzyme activity in crude cell extracts. Mutations that increased specificity for C8 were then combined to produce combinatorial mutants and screened for specificity with the colorimetric assays. […] The engineered enzyme KIVD_VLV has a 600-fold improvement in specificity between C8 and C5, in terms of catalytic efficiency, relative to the native KIVD.
# (§2) For the native KIVD and KIVD_VLV mutant, 2 ml overnight cultures of XL1B cells were transformed with pQE9 containing N-terminal his-tagged KIVD enzymes and grown in Terrific Broth (BP biomedical, Cat#3046-042) with 50 μg/mL of carbenicillin. (Fisher scientific, Cat# BP2648-5) For the GEOs, 2 ml overnight cultures of BLR cells were transformed with pet29b+ plasmid containing N-terminal his-tagged GEOs, and grown in Terrific Broth with 50 μg/mL of kanamycin. (Fisher scientific, Cat# BP906-5) These cultures were diluted 1:1000 in 500 mL of Terrific Broth with 1 mM MgSO4, 1% glucose, and 50ug/mL of corresponding antibiotics, then grown at 37° C. for 24 hours. Cultures were pelleted down at 4700 rpm for 10 mins and resuspended in auto-induction media (LB broth, 1 mM MgSO4, 0.1 mM TPP, 1×NPS, and 1×5052) for induction at 18° C. for 34 hours. At the end of induction, cells were centrifuged (4700 rpm, 4° C., 20 minutes), supernatant was removed, and cells were resuspended in 40 mL lysis buffer (100 mM Hepes pH 7.5, 100 mM NaCl, 10% glycerol, 0.1 mM TPP, 1 mM MgSO4, 10 mM Imidazole, 1 mM TCEP) and 1 mM PMSF) and sonicated for 2 minutes. Lysed cells were centrifuged at 4700 rpm at 4° C. for 60 mins to remove cell debris. […] Protein concentrations were determined using a Synergy H1 spectrophotometer (Biotek) by measuring absorbance at 280 nm using their calculated extinction coefficients with ExPASy ProtParam Tool.^33 All other buffers and salts were purchased from Fisher Scientific unless otherwise specified.
# (§3) The kcat and KM values of selective KIVD mutants were measured for the substrates: C3, C5, isoC5, and C8. […] Activity was measured at 0.005 mM to 10 mM substrates. […] Absorbance readings were taken every 1-minute at OD340 at 21° C. for 60 minutes using the Synergy H1. Kinetic parameters (kcat and KM) were determined by fitting initial velocity versus substrate concentration data to the Michaelis-Menten equation.
# [2] = substrate: CCCCCCC(=O)C(=O)O; experiment: as above; assay type: biochemical, Lactococcus lactis; conditions: other: pH 7.5, 21° C.
# Experimental: as §1, §2, §3
protein,measurement,setting,value
B1,Km,[1],10.0 ± 1.0 mM
same,kcat,[1],0.013 ± 0.001 s⁻¹
same,Km,[2],0.18 ± 0.05 mM
same,kcat,[2],0.5 ± 0.03 s⁻¹
